Measured values as given in US20260216242A1 (ALMAC DISCOVERY, published 2026).
Changes are numbered by the printed parent chain. Numbers in names are those of the source.

B1: A08 (VHH, not shown: small tags and cut ends)
VHH: QVQLVESGGGLVQAGESLRLACAASGTIFSGNAVGWYRQAPEKQREWVSSITDYGDTDYAEAVKGRFTISRDNAKNTVYLQMNSLKPEDTAVYYCYVYQRGESEEYWGQGTKVTVSS
B2: C05 (VHH, not shown: small tags and cut ends)
VHH: QVQLVESGGGLVQAGGSLRLSCAASRRSFSEYAMGWFRQAPGKEREFVAAIGWSGVIEYADSVKGRFTISRDNAKDTVYLQMNSLKPEDTAVYYCAAGLGIRVVSQTPAYWGQGTQVTVSS
B3: C06 (VHH, not shown: small tags and cut ends)
VHH: QVQLVESGGGLVQPGGSLRVSCAASGPSLSNYAMGWFRQAPGKEREFVAGISWGGGRTSYTDSVKGRFTISRDNAKNTVYLQMNNLKPEDTGVYYCAGRYGRGRNVEYEYDYWGQGTQVTVSS
B4: D08 (VHH, not shown: small tags and cut ends)
VHH: B3 VHH with Q3H, L11S, P14A, V20L, Q118K
B5: D11 (VHH, not shown: small tags and cut ends)
VHH: B3 VHH with L11S, P14A, V20L, Q118M
B6: D10 A06-hFc (S239C + S442C), mixed linkers (D10 - [G4S]1, A06 - [G4S]3) (Fc fusion)
chain 1: QVQLVESGGGLVQPGGSLRLSCAASGSIFSVNTMGWYRQAPGKQRDLVAVATSGGTIHYADSVKGRFTISRDNAKNTVYLQMNSLKPEDTAVYYCNLVVPYGMIAGDHDYWGQGTKVTVSSGGGGSEPKSSDKTHTCPPCPAPELLGGPCVFLFPPKPKDTLMISRTPEVTCVVVDVSHEDPEVKFNWYVDGVEVHNAKTKPREEQYNSTYRVVSVLTVLHQDWLNGKEYKCKVSNKALPAPIEKTISKAKGQPREPQVYTLPPSRDELTKNQVSLYCLVKGFYPSDIAVEWESNGQPENNYKTTPPVLDSDGSFFLYSKLTVDKSRWQQGNVFSCSVMHEALHNHYTQKSLCLSPGK
chain 2: QVHLVESGGGLVQAGGSLRLSCAASGRTFLSMGWFRQAPGKEREFVAAISWTGGSTGYADSVKGRFTISRESDKETMYLQMNSLKPEDTAVYYCAARGDVYYGGDDATRYKYWGQGTQVTVSSGGGGSGGGGSGGGGSEPKSSDKTHTCPPCPAPELLGGPCVFLFPPKPKDTLMISRTPEVTCVVVDVSHEDPEVKFNWYVDGVEVHNAKTKPREEQYNSTYRVVSVLTVLHQDWLNGKEYKCKVSNKALPAPIEKTISKAKGQPREPQVYTLPPSRDELTKNQVSLTCLVKGFYPSDIAVEWESNGQPENNYKTTPPVLDSDGSFFLTSKLTVDKSRWQQGNVFSCSVMHEALHNHYTQKSLCLSPGK
notes: Biparatopic heterodimer; also called #702
B7: D10 E06-hFc (S239C + S442C), mixed linkers (D10 - [G4S]1, E06 - [G4S]3) (Fc fusion)
chain 1: B6 chain 1
chain 2: QVHLVESGGGLVQAGGSLRLSCAASRRSFSEYAMGWFRQAPGKEREFVAAIGWSGVIEYADSVKGRFTISRDNAKDTVYLQMNSLKPEDTAVYYCAAGLGIRVVSQTPAYWGQGTQVTVSSGGGGSGGGGSGGGGSEPKSSDKTHTCPPCPAPELLGGPCVFLFPPKPKDTLMISRTPEVTCVVVDVSHEDPEVKFNWYVDGVEVHNAKTKPREEQYNSTYRVVSVLTVLHQDWLNGKEYKCKVSNKALPAPIEKTISKAKGQPREPQVYTLPPSRDELTKNQVSLTCLVKGFYPSDIAVEWESNGQPENNYKTTPPVLDSDGSFFLTSKLTVDKSRWQQGNVFSCSVMHEALHNHYTQKSLCLSPGK
notes: Biparatopic heterodimer; also called #703
B8: D10 E10-hFc (S239C + S442C), mixed linkers (D10 - [G4S]1, E10 - [G4S]3) (Fc fusion)
chain 1: B6 chain 1
chain 2: QVQLVESGGGLVQAGGSLRLSCAVSGRALSDYNIGWFRQAPGKEREFVARKTWDGSSTRYDDSVKGRFTVSIEDAKNTAYLQMSSLKTEDTAVYYCAAGRYSRARGWEYDYWGQGTQVTVSSGGGGSGGGGSGGGGSEPKSSDKTHTCPPCPAPELLGGPCVFLFPPKPKDTLMISRTPEVTCVVVDVSHEDPEVKFNWYVDGVEVHNAKTKPREEQYNSTYRVVSVLTVLHQDWLNGKEYKCKVSNKALPAPIEKTISKAKGQPREPQVYTLPPSRDELTKNQVSLTCLVKGFYPSDIAVEWESNGQPENNYKTTPPVLDSDGSFFLTSKLTVDKSRWQQGNVFSCSVMHEALHNHYTQKSLCLSPGK
notes: Biparatopic heterodimer; also called #704
B9: A06 E06-hFc (S239C + S442C), mixed linkers (A06 - [G4S]1, E06 - [G4S]3) (Fc fusion)
chain 1: QVHLVESGGGLVQAGGSLRLSCAASGRTFLSMGWFRQAPGKEREFVAAISWTGGSTGYADSVKGRFTISRESDKETMYLQMNSLKPEDTAVYYCAARGDVYYGGDDATRYKYWGQGTQVTVSSGGGGSEPKSSDKTHTCPPCPAPELLGGPCVFLFPPKPKDTLMISRTPEVTCVVVDVSHEDPEVKFNWYVDGVEVHNAKTKPREEQYNSTYRVVSVLTVLHQDWLNGKEYKCKVSNKALPAPIEKTISKAKGQPREPQVYTLPPSRDELTKNQVSLYCLVKGFYPSDIAVEWESNGQPENNYKTTPPVLDSDGSFFLYSKLTVDKSRWQQGNVFSCSVMHEALHNHYTQKSLCLSPGK
chain 2: B7 chain 2
notes: Biparatopic heterodimer; also called #706
B10: A06 E10-hFc (S239C + S442C), mixed linkers (A06 - [G4S]1, E10 - [G4S]3) (Fc fusion)
chain 1: B9 chain 1
chain 2: B8 chain 2
notes: Biparatopic heterodimer; also called #707
B11: A06 F05-hFc (S239C + S442C), mixed linkers (A06 - [G4S]1, F05 - [G4S]3) (Fc fusion)
chain 1: B9 chain 1
chain 2: B8 chain 2 with V24A, L29F, S30G, K51R, E73D, D74N, S84N, A104V
notes: Biparatopic heterodimer; also called #708

target: T1, ALPI His homodimer (human, UniProt P09923 20-503); assay: ELISA, antigen coated
T1 construct: Whole entry with His tag; used in ELISA and BLI; also called hALPI
T1 sequence: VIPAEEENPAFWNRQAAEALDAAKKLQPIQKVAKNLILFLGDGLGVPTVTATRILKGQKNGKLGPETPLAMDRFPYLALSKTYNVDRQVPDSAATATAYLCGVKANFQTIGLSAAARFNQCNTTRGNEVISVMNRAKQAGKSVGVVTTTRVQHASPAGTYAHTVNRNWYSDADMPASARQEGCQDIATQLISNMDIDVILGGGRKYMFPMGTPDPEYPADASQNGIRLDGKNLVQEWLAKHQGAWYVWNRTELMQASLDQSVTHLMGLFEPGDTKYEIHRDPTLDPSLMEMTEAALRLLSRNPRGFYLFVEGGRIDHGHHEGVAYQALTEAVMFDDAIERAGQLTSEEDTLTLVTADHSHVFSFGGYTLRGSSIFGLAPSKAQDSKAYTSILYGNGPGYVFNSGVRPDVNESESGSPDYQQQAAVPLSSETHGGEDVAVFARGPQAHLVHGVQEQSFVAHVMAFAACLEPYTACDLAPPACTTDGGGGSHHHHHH
Text: ELISA was used to test the binding and specificity of the VHHs. […] Anti-Llama—HRP antibody was used for detection.

B1: no binding (tested: 500 ng VHH).
B2: no binding (tested: 500 ng VHH).
B3: no binding (tested: 500 ng VHH).
B4: no binding (tested: 500 ng VHH).
B5: no binding (tested: 500 ng VHH).

Target: T2, Human ALPP (leucine zipper) (human)
T2 construct: Whole entry: ALPP fused with a cysteine stabilised leucine zipper and His tag; also called hALPP
T2 chain: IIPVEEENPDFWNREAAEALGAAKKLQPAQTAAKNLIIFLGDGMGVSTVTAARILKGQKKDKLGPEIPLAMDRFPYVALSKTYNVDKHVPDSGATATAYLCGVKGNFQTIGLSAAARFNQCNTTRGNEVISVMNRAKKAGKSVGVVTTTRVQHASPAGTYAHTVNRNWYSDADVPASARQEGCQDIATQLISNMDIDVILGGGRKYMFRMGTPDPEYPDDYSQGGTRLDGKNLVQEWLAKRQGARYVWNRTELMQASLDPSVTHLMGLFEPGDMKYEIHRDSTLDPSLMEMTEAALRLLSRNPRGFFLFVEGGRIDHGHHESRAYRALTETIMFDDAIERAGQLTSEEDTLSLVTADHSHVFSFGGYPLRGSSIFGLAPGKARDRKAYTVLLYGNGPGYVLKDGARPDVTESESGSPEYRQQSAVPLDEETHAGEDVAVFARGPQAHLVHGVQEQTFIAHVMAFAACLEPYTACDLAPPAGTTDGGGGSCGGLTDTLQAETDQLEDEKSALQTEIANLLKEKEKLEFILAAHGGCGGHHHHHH
Assay: BLI, antigen immobilised
Procedure: (§1) Binding kinetics were determined using the Biolayer Interferometry (BLI) Octet K2 system (Sartorius). […] All assays were conducted in PBS with a plate temperature of 25° C. Ka (M⁻¹s⁻¹), Kd (s⁻¹) and KD (nM) values were determined using Octet Data Analysis High Throughput software (ForteBio) for Biolayer Interferometry.

Compared with B1, B2 is lower in Kd: 0.03 nM for the first, under 0.01 nM for the second.

B3 and B4 cannot be ordered by Kd: under 0.01 nM for the first, under 0.01 nM for the second.

B5 gave a Kd of under 0.01 nM.

Compared with B1, B2 is lower in koff: 1.2e-05 s⁻¹ for the first, under 1e-07 s⁻¹ for the second.

B3 and B4 cannot be ordered by koff: under 1e-07 s⁻¹ for the first, under 1e-07 s⁻¹ for the second.

For B5, the koff was under 1e-07 s⁻¹.

In order of falling kon:
1. B1  429000 M⁻¹ s⁻¹
2. B2  394000 M⁻¹ s⁻¹
3. B3  368000 M⁻¹ s⁻¹
4. B4  175000 M⁻¹ s⁻¹
5. B5  97700 M⁻¹ s⁻¹

Target: T3, Human ALPL (leucine zipper) (human)
T3 construct: Whole entry: fused with a cysteine stabilised leucine zipper and His tag; also called hALPL
T3 chain: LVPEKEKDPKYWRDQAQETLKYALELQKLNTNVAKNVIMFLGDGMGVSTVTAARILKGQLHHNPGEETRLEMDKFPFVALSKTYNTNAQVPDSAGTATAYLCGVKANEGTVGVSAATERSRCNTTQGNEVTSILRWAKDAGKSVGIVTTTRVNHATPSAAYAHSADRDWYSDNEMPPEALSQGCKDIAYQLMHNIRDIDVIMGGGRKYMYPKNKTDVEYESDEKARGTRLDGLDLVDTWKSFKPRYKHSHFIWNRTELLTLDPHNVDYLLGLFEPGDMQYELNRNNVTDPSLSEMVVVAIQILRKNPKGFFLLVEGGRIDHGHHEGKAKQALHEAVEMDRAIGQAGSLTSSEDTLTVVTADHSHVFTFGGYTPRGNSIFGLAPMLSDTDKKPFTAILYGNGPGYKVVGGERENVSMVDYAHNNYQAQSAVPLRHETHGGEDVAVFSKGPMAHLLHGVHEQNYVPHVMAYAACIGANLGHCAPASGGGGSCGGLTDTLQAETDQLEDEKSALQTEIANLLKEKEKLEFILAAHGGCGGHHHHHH
Assay: BLI, antigen immobilised
Procedure: as §1

B1: no binding.
B2: no binding.
B3: no binding.
B4: no binding.
B5: no binding.

Target: T4, Human ALPP (leucine zipper) (human)
T4 construct: Soluble human ALPP fused to a disulphide stabilised leucine zipper and a His tag; The whole entry is the construct; also called hALPP; PLAP
T4 chain: T2 chain
Assay: BLI, KD app (antigen immobilised on AR2G sensor)
Procedure: Binding kinetics were determined using the Biolayer Interferometry (BLI) Octet K2 or R4 system (Sartorius). […] For KD apparent measurements, the ALPP proteins were immobilised in sodium acetate pH5 buffer to AR2G sensors using amine coupling. To measure 1:1 interactions, AHC biosensors were used to immobilise Fc-fused proteins. All assays were conducted in HBS-EP with a plate temperature of 25° C. Ka (M⁻¹s⁻¹), Kd (s⁻¹) and KD (nM) values were determined using Octet Data Analysis High Throughput software (Sartorius) for Biolayer Interferometry.

Compared with B6, B7 is higher in Kd: under 0.01 nM for the first, 0.11 nM for the second.

B8 and B9 cannot be ordered by Kd: under 0.01 nM for the first, under 0.01 nM for the second.

In order of falling kon:
1. B7  465000 M⁻¹ s⁻¹
2. B9  429000 M⁻¹ s⁻¹
3. B11  426000 M⁻¹ s⁻¹
4. B10  421000 M⁻¹ s⁻¹
5. B8  385000 M⁻¹ s⁻¹
6. B6  343000 M⁻¹ s⁻¹
